Values of other authors in PMC2908543, “Uropathogenic Escherichia coli Modulates Immune Responses and Its Curli Fimbriae Interact with the Antimicrobial Peptide LL-37” (PLoS Pathogens, 2010).

System: Pseudomonas aeruginosa
Settings: ref [47]
From the text: Biofilm inhibition by antimicrobial polypeptides has previously been described for Pseudomonas aeruginosa. […] A direct interaction with biofilm components was not investigated in these studies. The effect was rather related to an influence of LL-37 on the bacterial gene expression profile or an influence of lactoferrin on free iron. These and our findings stress an important anti-biofilm role of antimicrobial polypeptides in host defense. It is likely that the anti-biofilm activit ...

B1: lactoferrin (protein, UniProt P02788 20-710, looked up)
Lactotransferrin: GRRRSVQWCAVSQPEATKCFQWQRNMRKVRGPPVSCIKRDSPIQCIQAIAENRADAVTLDGGFIYEAGLAPYKLRPVAAEVYGTERQPRTHYYAVAVVKKGGSFQLNELQGLKSCHTGLRRTAGWNVPIGTLRPFLNWTGPPEPIEAAVARFFSASCVPGADKGQFPNLCRLCAGTGENKCAFSSQEPYFSYSGAFKCLRDGAGDVAFIRESTVFEDLSDEAERDEYELLCPDNTRKPVDKFKDCHLARVPSHAVVARSVNGKEDAIWNLLRQAQEKFGKDKSPKFQLFGSPSGQKDLLFKDSAIGFSRVPPRIDSGLYLGSGYFTAIQNLRKSEEEVAARRARVVWCAVGEQELRKCNQWSGLSEGSVTCSSASTTEDCIALVLKGEADAMSLDGGYVYTAGKCGLVPVLAENYKSQQSSDPDPNCVDRPVEGYLAVAVVRRSDTSLTWNSVKGKKSCHTAVDRTAGWNIPMGLLFNQTGSCKFDEYFSQSCAPGSDPRSNLCALCIGDEQGENKCVPNSNERYYGYTGAFRCLAENAGDVAFVKDVTVLQNTDGNNNEAWAKDLKLADFALLCLDGKRKPVTEARSCHLAMAPNHAVVSRMDKVERLKQVLLHQQAKFGRNGSDCPDKFCLFQSETKNLLFNDNTECLARLHGKTTYEKYLGPQYVAGITNLKKCSTSPLLEACEFLRK
notes: antimicrobial polypeptide
bacterial surface motility mediated by type IV pili: increased bacterial surface motility
